Values of other authors in PMC7915401.
Where two headings read alike, the source gives them in different places.

Columns and labels:
CD200R1 (Homo sapiens) [1] = target: CD200R1 (Homo sapiens) (UniProt Q8TD46)
CD200R1 (Homo sapiens) [2] = target: CD200R1 (Homo sapiens) (UniProt Q8TD46); remark: listed apart in the source

UniProt Q8TD46, sequence (Q8TD46 25-265): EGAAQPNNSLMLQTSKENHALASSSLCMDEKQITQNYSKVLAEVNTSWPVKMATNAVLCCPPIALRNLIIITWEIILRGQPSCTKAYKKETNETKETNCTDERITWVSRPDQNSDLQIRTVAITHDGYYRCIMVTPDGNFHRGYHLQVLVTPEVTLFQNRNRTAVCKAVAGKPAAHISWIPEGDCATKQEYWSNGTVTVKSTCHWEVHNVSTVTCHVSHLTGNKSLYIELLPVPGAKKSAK

CD200 (from UniProt P41217)
Kd (CD200R1 (Homo sapiens) [1]): 500 nM

K14 (vOX2) (from UniProt P0C788)
Kd (CD200R1 (Homo sapiens) [2]): 500 nM
